According to patent US11434268B2, “Vascular endothelial growth factor antagonists” (The United States of America, as represented by the …, priority 2012, dated 2022):

T1: NRP1 (Homo sapiens, UniProt O14786)
T1 construct: purchased Sino Biologics
T1 sequence (O14786 22-644 isoform O14786-2 limits assumed): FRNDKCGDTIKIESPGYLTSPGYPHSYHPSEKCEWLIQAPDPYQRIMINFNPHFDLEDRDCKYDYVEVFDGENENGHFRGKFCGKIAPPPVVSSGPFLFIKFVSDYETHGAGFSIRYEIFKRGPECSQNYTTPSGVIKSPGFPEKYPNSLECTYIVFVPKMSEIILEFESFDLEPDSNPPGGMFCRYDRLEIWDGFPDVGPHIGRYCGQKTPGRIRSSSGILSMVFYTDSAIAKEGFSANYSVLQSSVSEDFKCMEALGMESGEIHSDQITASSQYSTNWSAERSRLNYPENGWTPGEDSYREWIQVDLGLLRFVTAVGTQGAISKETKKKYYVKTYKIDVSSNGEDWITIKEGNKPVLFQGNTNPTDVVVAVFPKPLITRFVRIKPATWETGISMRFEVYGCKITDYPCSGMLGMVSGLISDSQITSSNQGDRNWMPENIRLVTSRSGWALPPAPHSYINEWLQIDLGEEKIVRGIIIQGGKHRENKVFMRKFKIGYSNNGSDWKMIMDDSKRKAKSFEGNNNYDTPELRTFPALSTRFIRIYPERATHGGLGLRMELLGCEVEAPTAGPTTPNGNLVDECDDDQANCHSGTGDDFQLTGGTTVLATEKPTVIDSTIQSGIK

B1: VEGF165 3S: human VEGF165 with opposite charge substitutions R123E/R124E/R159E in the mature protein (protein, listed as Homo sapiens)
chain: APMAEGGGQNHHEVVKFMDVYQRSYCHPIETLVDIFQEYPDEIEYIFKPSCVPLMRCGGCCNDEGLECVPTEESNITMQIMRIKPHQGQHIGEMSFLQHNKCECRPKKDRARQENPCGPCSEEEKHLFVQDPQTCKCSCKNTDSRCKARQLELNERTCECDKPRR

Legend:
[1] = test system: 293/KDR cells; test: Proliferation of stably transfected 293/KDR cell lines in culture; assay type: cell-based; details: 293/KDR stable transfectants, days 3-5; p<0.001; FIG. 4E
Procedure: (§1) For proliferation assays, 293/KDR derived cell lines (5×10^4 cellsper well) were seeded in 6-well culture plates in quadruplicate. Cell number per well was measured after 2, 3, 4, and 5 days of growth by removing cells with trypsin, collecting via centrifugation and counting suspended cells in triplicate in a Cellometer Automatic Cell Counter (Nexcelom Bioscience, Lawrence, Mass.). Purified recombinant VEGF-A protein used as an external standard quantitation as VEGF mass per mass total extracted cell protein. KDR autophosphorylation in cell lysates was measured similarly; cultured cells were serum-deprived for 48 h, where noted cells were stimulated for 20 min with WT or 3S VEGF-A alone or in combination at the indicated concentrations, then extracted with ice cold buffer containing non-ionic detergent, protease and phosphatase inhibitors. Cleared extracts were applied to assay plates and processing per the manufacturer's instructions.
(§2) For proliferation assays, 293/KDR derived cell lines were seeded in 6-well culture plates in quadruplicate. Cell number per well was measured at regular intervals removal of adherent cells and counting in a Cellometer Automatic Cell Counter (Nexcelom Bioscience). Assays for colony formation in soft agar were performed as described (Castagnino et al., 2000).

[2] = test system: 293/KDR cells; test: Soft agar colony formation (anchorage independent growth) of 293/KDR cells; assay type: cell-based; details: for soft agar colony formation by transfectants: 293/KDR cells stably transfected with expression plasmid, FIG. 4F; for inhibition of soft agar colony formation of 293/KDR cells stably transfected with VEGF165 WT: 3S protein at 0.06, 0.15 and 0.6 nM, pazopanib every other day at 0.3 and 3.0 nM over two weeks, FIG. 5C
Procedure: as §2
SoftAgar Colony Formation Assays for colony formation in soft agar (representative of anchorage independent growth) were performed and quantitated as described previously. Briefly, U87 MG cells and U87 MG cells transfected with a plasmid encoding NK1 60/62/73 were suspended in 0.5% Seaplaque agarose (1×10^5 cells) in growth medium in duplicate 60 mm dishes. Cell colonies were visualized after staining with p-iodotetrazolium violet by brightfield microscopy using an Olympus inverted microscope. Digital images were acquired and recorded using a CCD video camera and IP Lab software.

[3] = test system: 293/KDR cells; test: KDR-driven tumorigenicity of 293/KDR transfectants implanted subcutaneously in mice; assay type: in vivo, SCID/Beige mice; details: 3×10^6 transfected 293/KDR cells per animal, subcutaneous, FIG. 5D
Text: Additional control groups received the empty vector 293/KDR cells (3×10^6 per animal) or the empty vector cells combined with VEGF WT transfectants at 1.5×10^6 cells each. The latter group indicated the growth rate of tumors arising from 1.5×10^6 VEGF WT transfectants in the presence of “neutral” cells providing the same initial mass; a growth rate below this threshold in the group implanted with VEGF WT+VEGF 3S transfectants could be attributed to inhibition of VEGF WT-driven tumor growth by VEGF165 3S.
All experiments involving animals were performed in accordance with NIH Guidelines for Care and Use of Laboratory Animals using approved protocols. 293/KDR cells stably transfected with VEGF WT or 3S expression plasmids, or empty vector, were injected subcutaneously into SCID/Beige mice (Taconic, Inc.; 3×10^6 cells per animal total as indicated in the text, 5 mice/group) and tumor volumes were measured at regular intervals as described previously (Giubellino et al., 2007). Statistical analysis and curve fitting for all animal studies were performed using GraphPad Prism software version 5.0.
To test whether 3S VEGF could antagonize KDR-driven tumorigenicity in mice, groups of animals (n=5) were implanted subcutaneously with WT VEFG transfected 293/KDR cells (3×10^6 per animal), with the same number of 3S VEGF transfected cells, or with a suspension containing half the number of cells of each type. Additional control groups received the empty vector 293/KDR cells (3×10^6 per animal) or the empty vector cells combined with WT VEGF transfectants at 1.5×10^6 cells each. The latter group indicted the growth rate of tumors arising from 1.5×10^6 WT VEGF transfectants in the presence of “neutral” cells providing the same initial mass; a growth rate below this threshold in the group implanted with WT VEGF+3S VEGF transfectants could be attributed to inhibition by 3S VEGF. […]

[4] = Heparin-Sepharose mediated clustering (covalent affinity crosslinking); assay type: binding; details: conditioned media with Heparin Sepharose, BS3 crosslinking; FIG. 8
Procedure: These findings further support the mechanism of action of VEGF 3S as antagonism of HS binding to the VEGF/VEGFR complex leading to instability of ligand/receptor/HS complexes and consequent disruption of downstream signaling.
Covalent Affinity Crosslinking: Assays. […] Heparin Sepharose beads were used as both a source of heparin and to efficiently capture heparin-clustered VEGF from the conditioned media after crosslinking. Samples were then incubated with or without BS3 at room temperature for 1 h. After pelleting the beads by brief centrifugation, samples were obtained from the supernatants for SDS-PAGE and immunoblot analysis. The beads were then washed by five centrifugation/resuspension cycles in PBS, and bound proteins were eluted with boiling SDS-PAGE sample buffer. Supernatant and bead-captured samples were then resolved by SDS-PAGE under reducing conditions, transferred to PVDF and immunodetected with anti-VEGF antibody.

[5] = target: T2, KDR (Homo sapiens, UniProt P35968); test: Basal KDR tyrosyl phosphorylation in stably transfected 293/KDR cells; assay type: cell-based; details: 293/KDR stable transfectants after 24 h serum deprivation; FIG. 4D
T2 construct: host or cells: HEK293 (293/KDR)
Procedure: KDR autophosphorylation in cell lysates or tumor tissue extracts was measured similarly but included parallel detection with anti-receptor antibodies and specific anti-phospho-receptor antibodies or 4G10 (Millipore). […]
KDR tyrosyl phosphorylation in each cell line was measured after 24 h of serum deprivation (FIG. 4D). […]
Immunoassays: KDR and VEGF content in cell lysates, tissue extracts and conditioned media was determined using 2-site electrochemiluminescent immunoassays developed for use with the Meso Scale Discovery (MSD) SectorImager 2400 plate reader (Gaithersburg, Md.). […] GraphPad Prism software version 5.0 was used for all statistical analyses: protein content values determined by 2-site immunoassay were interpolated from standard curves by nonlinear regression analysis (4 parameter logistic equation); saturation and competitive binding curves were fit after determination of specific binding and assuming a one site binding model.

[6] = target: T2, KDR; test: Antagonism of VEGF165 WT-stimulated KDR autophosphorylation in 293/KDR cells; assay type: cell-based; details: VEGF165 10 ng/ml, serum-deprived 293/KDR cells; mock-immunodepleted conditioned media containing 2.5-fold molar excess VEGF 3S protein; FIG. 5B
Procedure: FIG. 5B. […] The x-axis indicates the concentration of VEGF165 3S protein (ng/ml) in the conditioned media prior to immunodepletion.
as §1, with “Cleared extracts were applied to assay plates and processing per the manufacturer's instructions.” left out
Since the conditioned media could contain other inhibitors of KDR activation, VEGF165 3S was selectively removed from the media by immunodepletion with anti-VEGF antibody. A mock-immunodepletion was performed in parallel using a non-specific antibody and the VEGF165 3S content of the anti-VEGF and mock-immunodepleted media was measured (FIG. 5A). […]

[7] = test system: Akt activation in EA.hy 926 cells, which express VEGFR1 and R2; test: VEGF- or PlGF-induced Akt activation (phospho-Akt/total Akt) in EA.hy 926 cells; assay type: cell-based; details: FIG. 9A
Procedure: VEGF 3s blocked Akt activation by VEGF-A (dark circles) or P1GF (squares).
(§3) Thus the pattern of VEGF 3S inhibition followed the pattern of VEGF-A binding to VEGFR1 and R2, but not homodimers of VEGFR3, as anticipated. […] VEGF 3s blocked Akt activation by VEGF-A (dark circles) or P1GF (squares). […] SCC-25 cells express all three VEGFRs.
(§4) Immunoassays: KDR and VEGF content in cell lysates, tissue extracts and conditioned media was determined using 2-site electrochemiluminescent immunoassays developed for use with the Meso Scale Discovery (MSD) SectorImager 2400 plate reader (Gaithersburg, Md.). KDR activation in cell lysates or tumor tissue extracts included parallel detection with anti-receptor antibodies and specific anti-phospho-receptor antibodies or 4G10 (Millipore). Cell lysates were prepared similarly for analysis of activated (phospho-) Akt, and total Akt using immunoassays from MSD. All measurements were made on triplicate samples. GraphPad Prism software version 5.0 was used for all statistical analyses: protein content values determined by 2-site immunoassay were interpolated from standard curves by nonlinear regression analysis (4 parameter logistic equation); saturation and competitive binding curves were fit after determination of specific binding and assuming a one site binding model.

[8] = test system: Akt activation in SCC-25 cells, which express VEGFR1, R2 and R3; test: VEGF-A- or VEGF-D-induced Akt activation in SCC-25 cells; assay type: cell-based; details: FIG. 9C
Procedure: SCC-25 cells express all three VEGFRs.
as §3, §4

[9] = target: T1, NRP1; test: Covalent affinity crosslinking analysis of NRP1 binding; details: NRP1-Fc, BS3 crosslinking, conditioned media; FIG. 10A
Procedure: Purified recombinant NRP1-Fc (Sino Biologics) was added as indicated (−NRP1 or +NRP1) to 24 h conditioned media from vector transfected 293/KDR cells(left lanes), 293/KDR/VEGF 3S transfectants (middle lanes), or 293/KDR/VEGF WT transfectants (right lanes) in the absence (−) or presence (+) of the crosslinking reagent BS3 (Thermo Fisher Pierce). Samples were resolved by SDS-PAGE under reducing conditions, transferred to PVDF and immunodetected with anti-Fc antibody (top panel; Thermo Fisher Pierce) or anti-VEGF (lower panels; R&D Systems). A 160 kDa band, consistent with a 1:1 complex of NRP1-Fc and VEGF dimer, was detected by both antibodies specifically in the presence of NRP1-Fc in media from 293/KDR/VEGF 3S transfectants and 293/KDR/VEGF WT transfectants but not the vector control. […] Dimeric VEGF (44 kDa) is captured from both 293/KDR/VEGF 3S media and 293/KDR/VEGF WT media only in the presence of BS3 in the reducing SDS-PAGE conditions used.

T2 sequence (P35968 20-1356): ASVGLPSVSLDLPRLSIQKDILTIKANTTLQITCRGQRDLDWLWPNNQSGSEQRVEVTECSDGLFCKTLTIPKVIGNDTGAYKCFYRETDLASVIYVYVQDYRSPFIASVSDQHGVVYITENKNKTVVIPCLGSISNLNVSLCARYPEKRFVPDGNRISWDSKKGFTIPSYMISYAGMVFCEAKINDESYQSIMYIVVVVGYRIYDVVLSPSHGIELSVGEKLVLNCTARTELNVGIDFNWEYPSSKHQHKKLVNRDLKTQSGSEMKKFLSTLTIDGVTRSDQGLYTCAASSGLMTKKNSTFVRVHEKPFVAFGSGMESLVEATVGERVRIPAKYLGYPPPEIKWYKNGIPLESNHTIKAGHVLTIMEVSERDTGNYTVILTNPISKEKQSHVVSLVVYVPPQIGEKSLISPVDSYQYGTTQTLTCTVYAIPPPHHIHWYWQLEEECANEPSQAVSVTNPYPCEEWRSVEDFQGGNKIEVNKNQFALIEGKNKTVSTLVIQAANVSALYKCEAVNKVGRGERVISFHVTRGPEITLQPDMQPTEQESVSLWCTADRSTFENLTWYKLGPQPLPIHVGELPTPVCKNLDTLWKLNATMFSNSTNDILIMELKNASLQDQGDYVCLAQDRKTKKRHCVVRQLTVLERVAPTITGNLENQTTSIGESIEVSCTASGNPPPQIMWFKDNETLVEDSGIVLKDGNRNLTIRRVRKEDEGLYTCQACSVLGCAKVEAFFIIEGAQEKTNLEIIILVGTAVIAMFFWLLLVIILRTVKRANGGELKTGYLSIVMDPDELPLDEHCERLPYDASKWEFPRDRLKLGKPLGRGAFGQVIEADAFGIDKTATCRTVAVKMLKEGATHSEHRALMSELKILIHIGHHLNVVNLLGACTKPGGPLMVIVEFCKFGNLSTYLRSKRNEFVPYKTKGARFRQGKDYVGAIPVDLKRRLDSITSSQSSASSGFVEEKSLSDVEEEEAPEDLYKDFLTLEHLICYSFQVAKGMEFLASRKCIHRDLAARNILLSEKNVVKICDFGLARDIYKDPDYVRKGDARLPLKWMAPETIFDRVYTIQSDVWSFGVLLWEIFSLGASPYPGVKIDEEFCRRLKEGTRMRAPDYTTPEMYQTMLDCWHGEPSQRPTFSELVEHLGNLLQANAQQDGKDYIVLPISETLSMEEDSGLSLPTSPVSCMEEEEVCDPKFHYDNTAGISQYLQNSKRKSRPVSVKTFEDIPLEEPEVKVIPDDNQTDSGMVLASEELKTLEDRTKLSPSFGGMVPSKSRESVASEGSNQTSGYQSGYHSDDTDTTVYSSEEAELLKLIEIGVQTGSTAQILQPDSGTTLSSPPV

| Molecule | cell proliferation rate in culture [1] | soft agar colony formation by transfectants [2] | soft agar colony formation by transfectants ([2]; listed as WT VEGF165) | tumor formation by implanted transfectants [3] | heparin-promoted clustering (oligomerization) [4] | basal KDR phosphorylation level compared with empty vector transfectants [5] | inhibition of soft agar colony formation of 293/KDR cells stably transfected with VEGF165 WT [2] | inhibition of soft agar colony formation of 293/KDR cells stably transfected with VEGF165 WT ([2]; listed as 3S VEGF) | inhibition of KDR autophosphorylation stimulated by purified VEGF165 protein [6] [%] | tumor formation by implanted transfectants ([3]; listed as 3S VEGF) | tumor formation by implanted transfectants ([3]; listed as VEGF 3S) | inhibition of PlGF-induced Akt activation (phospho-Akt/total Akt) [7] | inhibition of VEGF-A-induced Akt activation (phospho-Akt/total Akt) [7] | inhibition of PlGF-induced Akt activation (phospho-Akt/total Akt) ([7]; listed as VEGF 3s) | antagonism of Akt activation by VEGF-A ([8]; VEGF-A at 100 pM) | block of Akt activation induced by VEGF-D ([8]; VEGF-D at 1000 pM) | binding to NRP1 in vitro [9] |
| --- | --- | --- | --- | --- | --- | --- | --- | --- | --- | --- | --- | --- | --- | --- | --- | --- | --- |
| VEGF165 WT: native mature human vascular endothelial growth factor A isoform of 165 amino acids | grew significantly faster | grew robustly | robust anchorage independent growth | formed tumors fastest | promoted clustering | – | – | – | – | – | – | – | – | – | – | – | – |
| B1 | – | grew modestly, if at all | – | – | – | indistinguishable | significant, dose-dependent inhibition | substantial and dose-dependent inhibition | > 80 | tumors grew most slowly | did not form tumors prior to study termination | potency similar to pazopanib | blocked | blocked | antagonism | did not block | bound similarly |
